Experimental data from patent US20170240637A1 (Memorial Sloan Kettering, published 2017).

How the values were obtained:
[1] = target: 2Ig-B7H3-mFc mutant D128A (human) (UniProt Q5ZPR3); assay: SPR, 400 nM antibody over immobilized D128A mutant
[2] = target: T1, 2Ig-B7H3-mFc mutant R127A (human, UniProt Q5ZPR3-2 29-248, limits assumed); assay: SPR, 400 nM antibody over immobilized R127A mutant
T1 construct: not shown: mouse Fc
T1 sequence (looked up): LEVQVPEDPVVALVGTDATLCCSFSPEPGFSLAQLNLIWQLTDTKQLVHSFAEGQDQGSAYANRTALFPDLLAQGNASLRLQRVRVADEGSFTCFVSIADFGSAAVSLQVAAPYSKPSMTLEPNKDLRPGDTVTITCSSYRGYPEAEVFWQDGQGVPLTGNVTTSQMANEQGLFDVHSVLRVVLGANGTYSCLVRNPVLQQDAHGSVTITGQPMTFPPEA

wild type 2Ig-B7H3-mFc [3] = target: T2, wild type 2Ig-B7H3-mFc (human, UniProt Q5ZPR3-2 29-248, limits assumed); assay: SPR, 400 nM antibody over immobilized WT 2Ig-B7H3-mFc
T2 construct: Q5ZPR3 canonical entry is the 4Ig isoform; the 2Ig form is its shorter isoform; also called 2Ig-B7H3-Fc; WT 2Ig-B7H3-Fc; not shown: mouse Fc
T2 sequence (looked up): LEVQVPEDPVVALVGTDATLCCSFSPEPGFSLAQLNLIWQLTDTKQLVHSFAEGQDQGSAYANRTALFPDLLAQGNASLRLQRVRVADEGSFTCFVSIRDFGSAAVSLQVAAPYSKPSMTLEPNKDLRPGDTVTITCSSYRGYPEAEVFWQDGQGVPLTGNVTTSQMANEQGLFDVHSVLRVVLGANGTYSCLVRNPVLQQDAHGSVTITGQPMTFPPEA

4Ig-B7H3 [4] = target: T3, 4Ig-B7H3 (human, UniProt Q5ZPR3 27-461, limits assumed); assay: SPR
T3 construct: also called 4Ig-B73H3
T3 sequence (looked up): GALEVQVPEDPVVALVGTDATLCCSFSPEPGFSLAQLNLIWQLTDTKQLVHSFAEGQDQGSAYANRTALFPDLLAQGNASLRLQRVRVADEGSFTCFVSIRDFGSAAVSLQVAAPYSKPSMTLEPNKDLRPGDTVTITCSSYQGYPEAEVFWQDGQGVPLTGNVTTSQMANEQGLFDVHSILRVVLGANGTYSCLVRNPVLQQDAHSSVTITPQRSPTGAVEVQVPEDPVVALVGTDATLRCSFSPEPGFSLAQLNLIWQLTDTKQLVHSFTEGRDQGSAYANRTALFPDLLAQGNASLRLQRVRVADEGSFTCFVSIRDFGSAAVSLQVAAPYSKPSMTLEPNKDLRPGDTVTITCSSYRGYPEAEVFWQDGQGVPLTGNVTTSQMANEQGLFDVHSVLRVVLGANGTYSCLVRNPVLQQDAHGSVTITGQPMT

[5] = target: T4, 2Ig-B7H3 without Fc fusion (human, UniProt Q5ZPR3-2 29-245, limits assumed); assay: SPR
T4 construct: also called 2IgB7H3 (R&D)
T4 sequence (looked up): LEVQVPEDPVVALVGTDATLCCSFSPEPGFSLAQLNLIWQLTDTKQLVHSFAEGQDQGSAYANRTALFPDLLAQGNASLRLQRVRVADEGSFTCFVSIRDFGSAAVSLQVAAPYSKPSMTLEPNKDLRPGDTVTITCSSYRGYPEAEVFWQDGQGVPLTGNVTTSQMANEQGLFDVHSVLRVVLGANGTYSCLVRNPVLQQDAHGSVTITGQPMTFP

[6] = target: B7H3 on B7H3-positive human tumor cells (M14, LAN-1, IMR-32, HeLa) (human) (UniProt Q5ZPR3); assay: cell-based or functional assay
[7] = target: T4, 2Ig-B7H3 without Fc fusion; assay: SPR, IgG on 2Ig-B7-H3 without Fc fusion
Method: (§1) In brief, B7H3 antigen (either 2Ig-B7H3, 4Ig-B7H3, 2Ig-B7H3-mFc, 4Ig-B7H3-mFc), was directly immobilized onto the CM5 sensor chip via […]. Reference surface was set up for nonspecific binding and refractive index changes. […] The association and dissociation phase data were fitted simultaneously to a 1:1 model by using BIAevaluation 3.2. All the experiments were done at 25° C.

4Ig-B7H3 [8] = target: T3, 4Ig-B7H3; assay: SPR, IgG on 4Ig-B7-H3 without Fc fusion
Method: as §1

[9] = target: B7H3 on B7H3-positive human tumor cells (M14, LAN-1, IMR-32, HeLa) (human) (UniProt Q5ZPR3); assay: cell-binding assay of 131I-labelled antibody on LAN-1 cells
wild type 2Ig-B7H3-mFc [10] = target: T2, wild type 2Ig-B7H3-mFc; assay: SPR, antigen on CM5 chip
Method: (§2) In brief, B7H3 antigen (either 2Ig-B7H3, 4Ig-B7H3, 2Ig-B7H3-mFc, 4Ig-B7H3-mFc), was directly immobilized onto the CM5 sensor chip via […]. Reference surface was set up for nonspecific binding and refractive index changes. For analysis of the kinetics of interactions, varying concentrations of scFvs were injected at flow rate of 30 μl/min using running buffer containing 10 mM HEPES, 150 mM NaCl, 3 mM EDTA, and 0.05% Surfactant P-20 (pH 7.4). The association and dissociation phase data were fitted simultaneously to a 1:1 model by using BIAevaluation 3.2. All the experiments were done at 25° C.

[11] = target: T5, 4Ig-B7H3 fused to mouse Fc (B7H3-mFc) (human, UniProt Q5ZPR3 29-466, limits assumed, biotinylated on primary amines (NHS-biotin) in the experiment of paragraph 316); assay: SPR, IgG on 4Ig-B7H3-Fc
T5 construct: Expressed in DG44 CHO cells; also called 4Ig-B7H3-Fc; 4Ig-B7H3-mFc; not shown: mouse Fc
T5 sequence (looked up): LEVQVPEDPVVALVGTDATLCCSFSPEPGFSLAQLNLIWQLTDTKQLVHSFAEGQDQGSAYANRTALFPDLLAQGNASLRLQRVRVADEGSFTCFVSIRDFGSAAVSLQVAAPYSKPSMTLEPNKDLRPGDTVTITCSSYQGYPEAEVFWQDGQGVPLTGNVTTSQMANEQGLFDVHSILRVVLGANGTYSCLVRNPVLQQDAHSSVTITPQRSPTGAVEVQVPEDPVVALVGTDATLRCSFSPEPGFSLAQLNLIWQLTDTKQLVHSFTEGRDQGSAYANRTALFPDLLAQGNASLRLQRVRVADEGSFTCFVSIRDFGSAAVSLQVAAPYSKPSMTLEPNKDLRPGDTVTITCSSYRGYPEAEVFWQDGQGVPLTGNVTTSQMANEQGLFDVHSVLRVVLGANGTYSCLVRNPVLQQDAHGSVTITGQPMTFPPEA
Method: as §1

4Ig-B7H3 [12] = target: T3, 4Ig-B7H3; assay: SPR, antigen on CM5 chip
Method: as §2

wild type 2Ig-B7H3-mFc [13] = target: T2, wild type 2Ig-B7H3-mFc; assay: SPR, IgG on 2Ig-B7H3-mFc
Method: as §1

4Ig-B7H3 [14] = target: T3, 4Ig-B7H3; assay: SPR (Biacore T-100), 4Ig-B7H3 on CM5 chip, scFv injected
Method: as §2

[15] = target: T4, 2Ig-B7H3 without Fc fusion; assay: ELISA, right panel '2IgB7H3', scFv serially diluted 0.01-10 µg/ml
Method: B7H3-mFc (100 ng/well) or 2IgB7H3 (R&D, Minneapolis, Minn.) (25 ng/well) were coated on polyvinyl microtiter plates in PBS overnight. Plates were then blocked with 0.5% BSA in PBS at 150 μl per well for 1 h at room temperature. Antibodies were added in triplicates with serial dilution in 0.5% BSA. Following incubation for 1 h at room temperature and washing with PBS, HRP-mouse anti-human Fc antibody, HRP-streptavidin, or HRP-mouse anti-Flag antibody was added. After incubation for 1 h at room temperature and further washing, the color was developed and quantified using an ELISA plate reader at 490 nm.

anti-B7H3 MAb MIH42 (Thermo Scientific Pierce) (antibody)
Relative binding (to WT) [1]: 68.8%
Relative binding (to WT) [2]: 76.1%
Max RU (wild type 2Ig-B7H3-mFc [3]): 2530 RU

B1: ch8H9 6.1 IgG (ch8H9 + 6 affinity maturation mutations) (antibody, V domains shown)
VH: QVQLQQSGAELVKPGASVKLSCKTSGYTFTNYDINWVRQRPGQGLEWIGWIFPGDDSTQYNEKFKGKATLTTDTSSSTAYMQLSRLTSEDSAVYFCARQTTGTWFAYWGQGTLVTVSA
VL: DIVMTQSPATLSVTPGDRVTLSCRASQSISDYLYWYQQKSHESPRLLIKYASQSISGIPSRFSGSGSGSDFTLSINSVEPEDVGVYYCQNGHSFPLTFGAGTKLELKR
fold enhancement in binding relative to ch8H9 (4Ig-B7H3 [4]): 2 to 4 fold
fold enhancement in binding relative to ch8H9 [5]: 2 to 4 fold
ADCC EC50 (µg/ml), 51Cr release, LAN-1 targets, human PBMC effectors [6]: 0.1 µg/mL
Fold change EC50 relative to ch8H9 (ADCC) [6]: 14 fold
Kd [7]: 0.62 nM
koff [7]: 4.25e-05 s⁻¹
kon [7]: 68900 M⁻¹ s⁻¹
Kd (4Ig-B7H3 [8]): 3.7 nM
koff (4Ig-B7H3 [8]): 0.000123 s⁻¹
kon (4Ig-B7H3 [8]): 33500 M⁻¹ s⁻¹
in vitro immunoreactivity [9]: 73%

B2: murine 8H9 (m8H9) IgG1 monoclonal antibody (antibody, V domains shown)
VH: QVQLQQSGAELVKPGASVKLSCKASGYTFTNYDINWVRQRPEQGLEWIGWIFPGDGSTQYNEKFKGKATLTTDTSSSTAYMQLSRLTSEDSAVYFCARQTTATWFAYWGQGTLVTVSA
VL: DIVMTQSPATLSVTPGDRVSLSCRASQSISDYLHWYQQKSHESPRLLIKYASQSISGIPSRFSGSGSGSDFTLSINSVEPEDVGVYYCQNGHSFPLTFGAGTKLELK
modifications: 131I-labelled in the LAN-1 immunoreactivity assay; the label is not carried by the letters.
notes: also called MAb 8H9
Kd (wild type 2Ig-B7H3-mFc [10]): 0.28 nM
koff (wild type 2Ig-B7H3-mFc [10]): 1.03e-05 s⁻¹
kon (wild type 2Ig-B7H3-mFc [10]): 36700 M⁻¹ s⁻¹
Kd [7]: 0.81 nM
koff [7]: 2.24e-05 s⁻¹
kon [7]: 27800 M⁻¹ s⁻¹
Kd (4Ig-B7H3 [8]): 8.9 nM
koff (4Ig-B7H3 [8]): 0.000165 s⁻¹
kon (4Ig-B7H3 [8]): 18500 M⁻¹ s⁻¹
in vitro immunoreactivity [9]: 69%

B3: hu8H9-H1L2 IgG1 (antibody, V domains shown)
VH: QVQLVQSGAEVKKPGASVKLSCKASGYTFTNYDINWVRQAPGQGLEWIGWIFPGDGSTQYNEKFKGKATLTTDTSTSTAYMELSSLRSEDTAVYFCARQTTATWFAYWGQGTLVTVSS
VL: EIVMTQSPATLSVSPGERVTLSCRASQSISDYLHWYQQKSHESPRLLIKYASQSISGIPARFSGSGSGTEFTLTINSVEPEDVGVYYCQNGHSFPLTFGQGTKLEIKR
Kd [11]: 42.7 nM
koff [11]: 0.0239 s⁻¹
kon [11]: 560000 M⁻¹ s⁻¹
Kd (4Ig-B7H3 [12]): 34.8 nM
Kd (wild type 2Ig-B7H3-mFc [13]): 68.4 nM
koff (wild type 2Ig-B7H3-mFc [13]): 0.00116 s⁻¹
kon (wild type 2Ig-B7H3-mFc [13]): 17000 M⁻¹ s⁻¹

B4: hu8H9-H2L2 IgG1 (antibody, V domains shown)
VH: QVQLVQSGAEVVKPGASVKLSCKASGYTFTNYDINWVRQAPGQGLEWIGWIFPGDGSTQYNEKFKGKATLTTDTSTSTAYMELSRLTSEDTAVYFCARQTTATWFAYWGQGTLVTVSS
VL: EIVMTQSPATLSVSPGERVTLSCRASQSISDYLHWYQQKSHESPRLLIKYASQSISGIPARFSGSGSGTEFTLTINSVEPEDVGVYYCQNGHSFPLTFGQGTKLEIKR
Kd (4Ig-B7H3 [12]): 38.6 nM

B5: hu8H9-H2L1 IgG1 (antibody, V domains shown)
VH: QVQLVQSGAEVVKPGASVKLSCKASGYTFTNYDINWVRQAPGQGLEWIGWIFPGDGSTQYNEKFKGKATLTTDTSTSTAYMELSRLTSEDTAVYFCARQTTATWFAYWGQGTLVTVSS
VL: EIVMTQSPATLSVSPGERVTLSCRASQSISDYLHWYQQKPGQAPRLLIKYASQSISGIPARFSGSGSGTEFTLTISSVQPEDVGVYYCQNGHSFPLTFGQGTKLEIKR
Kd (4Ig-B7H3 [12]): 34.8 nM

B6: hu8H9 clone S3.3 scFv (scFv)
scFv: QVQLVQSGAEVVKPGASVKLSCKTSGYTFTNYDINWVRQRPGQGLEWIGWIFPGDGSTQYNEKFKGKATLTTDTSTSTAYMELSSLRSEDTAVYFCARQTTATWFAYWGQGTLVTVSSGGGGSGGGGSGGGGSEIVMTQSPATLSVSPGERVTLSCRASQSISDYLYWYQQKSHESPRLLIKYASQSISGIPARFSGSGSGSEFTLTINSVEPEDVGVYYCQNGHSFPLTFGQGTKLELKR
notes: also called Sort3; not shown: FLAG and His tags
Kd (4Ig-B7H3 [14]): 9.85 nM
koff (4Ig-B7H3 [14]): 0.000244 s⁻¹
kon (4Ig-B7H3 [14]): 24800 M⁻¹ s⁻¹
EC50 (read off the curve) [15]: ~0.2 µg/mL
